Biological target: T1, ErbB2 (UniProt P04626 23-1255, limits assumed)
T1 construct: also called Her2; HER2
Assay: not described (data not shown)

- binding result: no binding
B1: Erbin1-693βgal, fusion protein containing the N-terminal 693 aa residues of Erbin and β-galactosidase (other, mouse, UniProt Q80TH2 1-693, looked up)
chain: MTTKRSLFVRLVPCRCLRGEEETVTTLDYSHCSLEQVPKEIFTFEKTLEELYLDANQIEELPKQLFNCQSLHKLSLPDNDLTTLPASIANLINLRELDVSKNGIQEFPENIKNCKVLTIVEASVNPISKLPDGFSQLLNLTQLYLNDAFLEFLPANFGRLTKLQILELRENQLKMLPKTMNRLTQLERLDLGSNEFTEVPEVLEQLSGLREFWMDGNRLTFIPGFIGSLRQLTYLDVSKNNIEMVEEGISTCENLQDFLLSSNSLQQLPETIGSLKNVTTLKIDENQLMYLPDSIGGLRSIEELDCSFNEIEALPSSIGQLTNMRTFAADHNYLQQLPPEIGNWKNITVLFLHCNKLETLPEEMGDMQKLKVINLSDNRLKNLPFSFTKLQQLTAMWLSDNQSKPLIPLQKETDTETQKMVLTNYMFPQQPRTEDVMFISDNESFNPALWEEQRKQRAQVAFECDEDKDEREAPPREGNLKRYPTPYPDELKNMVKTVQTIVHRLKDEETNEESGRDLKQHEDQQVVNKDKCVKTSESTTTKSKLDEREKYMNSVQKMSEPEAETNGGNLPVTASMKLSGNLKHIVNHDDVFEESEELSSDEEMKMAEMRPPLIESSINQPKVVALSNNKKDDAKDADSLSDEVTHNSNQNNSNCSSPSRMSDSVSLNTDSSQDTSLCSPVKQTPVDSNSKVR
notes: Expressed in erbin ΔC/ΔC mice; lacks residues 694-1450 of mouse Erbin, including the PDZ domain; not shown: β-galactosidase encoded by the inserted lacZ gene
